Consider seven molecules from article PMC13136903, “Zα and Zβ domains of ADAR1 and ZBP1 bind G-quadruplexes with nanomolar affinities, establishing Zβ as a G-quadruplex-specific domain”.

In data set [1] the test system is GV2 Zα (giant virus Zα domain) (giant virus (metagenome)). In words: MST. Conditions: 20 mM NaPi pH 6.4, 100 mM KCl, 1 mM DTT, 0.5 mM EDTA (LiCl replaces KCl where noted); ITC 35 C; MST 25 C with 20 nM protein (labelling without DTT; competition …).
Data set [2] has as its target T1, ADAR1 Zα (Homo sapiens, UniProt P55265 139-202).
T1 sequence: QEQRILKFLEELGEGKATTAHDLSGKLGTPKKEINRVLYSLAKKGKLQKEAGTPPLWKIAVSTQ
In words: MST; 20 mM NaPi pH 6.4, 100 mM KCl, 1 mM DTT, 0.5 mM EDTA (LiCl replaces KCl where noted); ITC 35 C; MST 25 C with 20 nM protein (labelling without DTT); competition. Conditions: protein: recombinant, tags: N-terminal 6xHis, thrombin site, T7 tag.

Data set [3] has as its target T1, ADAR1 Zα. Briefly: NMR; 100 µM RNA; CSPs similar to ssUUAGGG; 20 mM NaPi pH 6.4, 100 mM KCl, 1 mM DTT, 0.5 mM EDTA (LiCl replaces KCl where noted); ITC 35 C; MST 25 C with 20 nM protein (labelling without DTT); competition. The following applies: protein: recombinant; tags: N-terminal 6xHis, thrombin site, T7 tag; chain copies: 2.
The target of data set [4] is T2, ADAR1 Zβ (Homo sapiens, UniProt P55265 291-366).
T2 sequence: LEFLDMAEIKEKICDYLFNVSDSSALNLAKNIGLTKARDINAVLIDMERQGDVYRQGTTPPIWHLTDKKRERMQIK
In words: NMR; 100 µM RNA; large CSP increase; 20 mM NaPi pH 6.4, 100 mM KCl, 1 mM DTT, 0.5 mM EDTA (LiCl replaces KCl where noted); ITC 35 C; MST 25 C with 20 nM protein (labelling without DTT); competition. The following applies: protein: recombinant; tags: N-terminal 6xHis, thrombin site, T7 tag.

The target in data set [5] is T1, ADAR1 Zα. Briefly: NMR; 30 µM RNA; CSPs similar to UUACCG at 100 µM; 20 mM NaPi pH 6.4, 100 mM KCl, 1 mM DTT, 0.5 mM EDTA (LiCl replaces KCl where noted); ITC 35 C; MST 25 C with 20 nM protein (labelling without DTT); competition. The following applies: protein: recombinant; tags: N-terminal 6xHis, thrombin site, T7 tag; predominantly single strand at 30 µM.
Data set [6] addresses T2, ADAR1 Zβ. Briefly: MST; ligand-depletion range, may not be exact; 20 mM NaPi pH 6.4, 100 mM KCl, 1 mM DTT, 0.5 mM EDTA (LiCl replaces KCl where noted); ITC 35 C; MST 25 C with 20 nM protein (labelling without DTT); competition. The following applies: protein: recombinant; tags: N-terminal 6xHis, thrombin site, T7 tag; parallel G4.
For data set [7], the target named is T1, ADAR1 Zα. In words: ITC; 35 C; N=1.44; 20 mM NaPi pH 6.4, 100 mM KCl, 1 mM DTT, 0.5 mM EDTA (LiCl replaces KCl where noted); ITC 35 C; MST 25 C with 20 nM protein (labelling without DTT); competition. Conditions: protein: recombinant; tags: N-terminal 6xHis, thrombin site, T7 tag; chain copies: 2; parallel G4.
Data set [8] deals with T2, ADAR1 Zβ. Briefly: ITC; 35 C; N=1.12; 20 mM NaPi pH 6.4, 100 mM KCl, 1 mM DTT, 0.5 mM EDTA (LiCl replaces KCl where noted); ITC 35 C; MST 25 C with 20 nM protein (labelling without DTT); competition. Conditions: protein: recombinant; tags: N-terminal 6xHis, thrombin site, T7 tag; parallel G4.
The next data set has as its target T3, ZBP1 Zα1 (Homo sapiens, UniProt Q9H171 1-70).
T3 sequence: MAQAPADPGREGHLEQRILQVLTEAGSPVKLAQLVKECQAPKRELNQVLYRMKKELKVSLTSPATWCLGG
Briefly: NMR; significant peak disappearance; LLPS; 20 mM NaPi pH 6.4, 100 mM KCl, 1 mM DTT, 0.5 mM EDTA (LiCl replaces KCl where noted); ITC 35 C; MST 25 C with 20 nM protein (labelling without DTT); competition. The following applies: protein: recombinant; tags: N-terminal 6xHis, thrombin site, T7 tag; parallel G4.

The target of data set [9] is T2, ADAR1 Zβ. Briefly: MST; 20 mM NaPi pH 6.4, 100 mM KCl, 1 mM DTT, 0.5 mM EDTA (LiCl replaces KCl where noted); ITC 35 C; MST 25 C with 20 nM protein (labelling without DTT); competition. Conditions: protein: recombinant; tags: N-terminal 6xHis, thrombin site, T7 tag; parallel G4.
The target of data set [10] is T1, ADAR1 Zα. In words: NMR; extensive peak shifts; 20 mM NaPi pH 6.4, 100 mM KCl, 1 mM DTT, 0.5 mM EDTA (LiCl replaces KCl where noted); ITC 35 C; MST 25 C with 20 nM protein (labelling without DTT); competition. Conditions: protein: recombinant; tags: N-terminal 6xHis, thrombin site, T7 tag; no G4; transient structure.

For GGGAGGGCGGGAGGG [ALU-GQRNA], the Kd in data set [1] was found to be 1000 nM. For the molecule UUACCGUUACCGUUACCGUUACCG (ssRNA) [TERRA-mutRNA], the Kd in the data set with ADAR1 Zα [2] (no G4, transient structure) worked out at 35.9 ± 8.9 nM. Regarding UUAGGG (structured_RNA) [GQ-UUAGGG 6-mer (100 µM)], the binding result with ADAR1 Zα [3] and with ADAR1 Zβ [4] was “binds” in each case. As to UUAGGG (ssRNA) [ssUUAGGG 6-mer (30 µM)], in the data set with ADAR1 Zα [5], the binding result was “binds”.

For the molecule UUAGGGUUAGGGUUAGGGUUAGGG (structured_RNA) [TERRA-GQRNA], the Kd with ADAR1 Zβ [6] came to 4.2 ± 2.2 nM; in the data set with ADAR1 Zα [2] (chain copies: 2, parallel G4) it was 19.3 ± 13.7 nM. As to GGGAGGGCGGGAGGG (structured_RNA) [ALU-GQRNA], the Kd was found to be 430 ± 100 nM in the data set with ADAR1 Zα [7]; 1810 ± 300 nM in the data set with ADAR1 Zβ [8]; 336 ± 181 nM with ADAR1 Zβ [9]; 116 ± 69.3 nM with ADAR1 Zα [2] (chain copies: 2, parallel G4). For the same molecule, the binding result in the data set with ZBP1 Zα1 is on record as “binds”. Consider CCGACCGCCCGACCG (ssRNA) [ALU-mutRNA], for which, in the data set with ADAR1 Zα [10], the binding result is given as “binds”.
